Assay [1] has as its target T1, cdr2, human peptide on HLA-A*02:01 (human).
T1 peptide: SLLEEMFLTV
Kind of assay: cytokine release.

For assay [2], the target named is T2, cdr2, human peptide on HLA-A*02:01 (human).
T2 peptide: SLLEEMFLT
Kind of assay: cytokine release.

The target in assay [3] is T3, cdr2 (cerebellar degeneration-related 2 protein), human peptide on HLA-A*02:01 (human).
T3 peptide: LLEEMFLTV
Briefly: multimer staining.

B1: cdr2 TCR (clone 11/12) (TCR, V domains shown)
Valpha: QQQVRQSPQSLTVWEGGTTVLTCSYEDSTFNYFPWYQQFPGEGPALLISILSVSDKKEDGRFTTFFNKREKKLSLHIIDSQPGDSATYFCAASGASGGSNAKLTFGKGTKLSVKS
Vbeta: DSGVVQSPRHIIKEKGGRSVLTCIPISGHSNVVWYQQTLGKELKFLIQHYEKVERDKGFLPSRFSVQQFDDYHSEMNMSALELEDSAMYFCASSLGGWAEQFFGPGTRLTVL
B1: the binding result is given as “recognises” in assay [1], “no recognition” in assay [2] and “recognises” in assay [3].

For the origin of these results see US20090208538A1 (published 2009).
